Laboratory results taken from patent US20140275493A1 (Bayer, published 2014).

Molecular target: T1, Human TFPI (tissue factor pathway inhibitor) (human, UniProt P10646 29-304, limits assumed)
T1 construct: Coated on Maxisorb plates for the ELISA
T1 sequence (looked up): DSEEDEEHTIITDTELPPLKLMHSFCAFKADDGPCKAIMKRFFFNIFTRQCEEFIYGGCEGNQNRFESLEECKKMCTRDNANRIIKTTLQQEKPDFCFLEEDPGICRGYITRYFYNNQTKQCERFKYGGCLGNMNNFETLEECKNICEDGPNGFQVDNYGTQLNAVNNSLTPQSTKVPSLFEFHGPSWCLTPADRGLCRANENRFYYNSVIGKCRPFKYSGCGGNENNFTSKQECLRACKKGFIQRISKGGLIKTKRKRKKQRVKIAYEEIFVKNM
Test: pH 6.0 TFPI dissociation ELISA, ratio of signals
Procedure: Human TFPI, 1 μg/ml, was used to coat Maxisorb™ microtiter plates. Expression media, 100 μl, from each member of the His scan library, was added to two wells on the plate, in a pair wise fashion. The plate was incubated on a shaker at room temperature for 1 hr. The plate was washed 3× with PBST. PBS (pH 7.0) was added to one well of the pair, 100 mM pH6.0 Citrate buffer was added to the second well of the same pair. The plate was incubated at 37° C. with shaking for one hr. The plate was washed 3× with PBST and developed using amplex red. A pH 7.0/pH 6.0 ratio was established to rank the sensitive muteins. The ratio for wild type 2A8-g200 Fab was 1.0.

B1: 2A8-g200 Fab VL-Y31H (Fab, V domains shown)
VH: EVQLVESGGGLVQPGGSLRLSCAASGFTFSSYGMDWVRQAPGKGLEWVSSIRGSRGSTYYADSVKGRFTISRDNSKNTLYLQMNSLRAEDTAVYYCARLYRYWFDYWGQGTLVTVSS
VL: SYELTQPPSVSVSPGQTARITCSGDNLPKYHAHWYQQKPGQAPVVVIFYDVNRPSGIPERFSGSNSGNTATLTISGTQAMDEADYYCQAWWSSTPVFGGGTKLTVLG
- Ratio pH 7.0/pH 6.0: 6.64
